According to a protein production outcome set (Wang et al. 2014):

Assay: label from the status in PepcDB records

| Sequence | protein production |
| --- | --- |
| MSLTIKNSLGQSHDYIKMFVKEGDTVVDATCGNGNDTAFLASLVGENGRVFGFDIQDKAIANTTKKLTDLNLIDRVTLIKDGHQNMDKYIDCPVKAVMFNLGYLPSGDHSISTRPETTIQALSKAMELLVTGGIITVVIYYGGDTGFEEKEKVLEFLKGVDQKKFIVQRTDFINQANCPPILVCIEKISEGHHHHHH | not failed |
| MSLTINVGLLVDETGPTSDVGKGYSLGAELAFKYFNEKGIYTKDGVRVNINYIKRDYAYNPTTAEEYYREFRDRYGVIAIIGWGTADTEKLSDQVDTDKITYISASYSAKLLVKPFNFYPAPDYSTQACSGLAFLASEFGQGKLALAYDSKVAYSRSPIGAIKKAAPSLGLQVVGDYDLPLRATEADAERIAREMLAADPDYVWCGNTISSCSLLGRAMAKVGLDAFLLTNVWGFDERSPQLIGEGGYGKVFGISPFIYPMFGQDVEGIQTIFEAARMNGVSEDQINLRVVQGFVNVWLLIKAIESVTSQDLQERGGEALKEALEANTFDLGGITADTIDYEPGFHLAYRKVFIIKLGENGELQLMGKFEAPSQVDCARYTIEEGHHHHHH | not failed |
| MSLTLYQKKSKMIGIIIPDLNNRFYAQIIDGIQEVIQKEGYTALISFSTNSDVKKYQNAIINFENNNVDGIITSAFTIPPNFHLNTPLVMYDSANINDDIVRIVSNNTKGGKESIKLLSKKIEKVLIQHWPLSLPTIRERIEAMTAEASKLKIDYLLEETPENNPYISAQSALNKSNQFDAIITVNDLYAAEIIKEAKRRNLKIPDDFQLVGYDNNILCGYTSPTISTIDQNPKLIGQTAAHRLLDLMSGNNSTRNSIIDVLPIKRDSTEGHHHHHH | not failed |
| MSLTNTKTGFSVKDILDLPDTNDEEGSITGTEEDTEGSEATKTPGVLVQSPLENVQNLPLKNPFYDNSDNPYTRWLATTDSIQYSLHGLSANSQDTSAKSPEPSADESPDNDKETSSNGSDSGKKQKEGALFQGTNLRTRAPV | failed |
| MSLTSLIIAEDQNMLRQAMVQLIKLHGDFEILADTDNGLDAMKLIEEYNPNVVILDIEMPGMTGLEVLAEIRKKHLNIKVIIVTTFKRPGYFEKAVVNDVDAYVLKERSIEELVETINKVNNGEKEGHHHHHH | not failed |
| MSLTTFLFRNGALLDPDHPDLLQGFEILIEDGFIREVSDKPIKSSNAHVIDVKGKTIMPGLIDLHVHVVAIEFNLPRVATLPNVLVTLRAVPIMRAMLRRGFTTVRDAGGAGYPFKQAVESGLVEGPRLFVSGRALSQTGGHADPRARSDYMPPDSPCGCCVRVGALGRVADGVDEVRRAVREELQMGADQIKIMASGGVASPTDPVGVFGYSEDEIRAIVAEAQGRGTYVLAHAYTPAAIARAVRCGVRTIEHGNLIDDETARLVAEHGAYVVPTLVTYDALASEGEKYGLPPESIAKIADVHGAGLHSIEIMKRAGVKMGFGTDLLGEAQRLQSDEFRILAEVLSPAEVIASATIVSAEVLGMQDKLGRIVPGAHADVLVVDGNPLKSVDCLLGQGEHIPLVMKDGRLFVNELEGHEGHHHHHH | not failed |
| MSLYKRKSKLIGLLLPDMSNPFFTLIARGVEDVALAHGYQVLIGNSDNDIKKAQGYLATFVSHNCTGMISTAFNENIIENTLTDHHIPFVFIDRINNEHNGISTNHFKGGQLQAEVVRKGKGKNVLIVHENLLIDAFHQRVQGIKYILDQQRIDYKMLEATLLDNDKKFIDLIKELSIDSIICSNDLLAINVLGIVQRYHFKVPAEIQIIGYDNIPFSEMTYPQITTIDQSAYHLGEIAVSQLLGLNTDNLTNNHKQLALTVKHRGSTREGHHHHHH | not failed |
| MSMLGIKWKLHGNGKSIRPGHVVAPDERLAWPLTIGIGMQHVVAMFGATFLVPIITGMPPATTLLFSGIGTLLFLVITKGRVPSYLGSSFAFIAPIMASQQQYGVSGALGGVVLAGVVLALIGAVVQKFGAEWINRLMPPIVTGAIVALIGLNLAPAAKANFDAAPVTALITLVTIILVSVLFRGILGRLSILVGVVVGYLVAMMRGEVSYEKMDAAAWVGLPLFQTPEFHIGVVGLFVPVVLVLVAENVGHVKSVAAMTGQNLDGVSGRALMADGAATVLAGFGGGSGTTTYAENIGVMAATKVYSTAAYWVAGVFAILLSFSPKFGELIATVPPGVLGGAATMLYGMIGVLGVKIWVQNKVNFSNPINLTTAAVALIIGIADYAWTIGELKFTGIALGSAAALVIYHGMKGLAHWRGTVAEPETETAGLPPAVKSAMNAAAKRGGKKGK | failed |
| MSMPNHPNLTTADAKKILNKFNCLDIAPILKPSEKESVRRALILITKLSDYQILGICADTADEGLLAMKTYSHALGYEVPIDLPVVEGPVYIKLNGKNGLCYLDSYAGHHRGVLVSCQSYYEGGINEMYGHLPLDLFV | not failed |
| MSMSSIPSSSPGGKRYGWVEKIGNKVPHPFLLFIYLIAVLIAATAILSALNVGVQNPTDGSRVVVKNLLSVEGLHWFLPNVIKNFSGFAPLGAILALVLGAGFAERVGLLPALMVKMASHVSARYASYMVLFIAFFSHISSDAALVIMPPLGALMFLAVGRHPVAGLLAAIAGVGCGFTANLLIVTTDVLLSGISTEAAKSIDASLHVSVIDNWYFMATSVIVLTLVGGLITDKLVEPRLGQWQGSRDEKLQTLTPAERFGLRIAGVATLVFVAVIALMVVPENGILRDPVQHTVMPSPFIKGIVPLIIFFFFVVSLAYGIATGKIRRQADLPQLMIEPMKEMAGFIVMVFPLAQFVAMFNWSNMGKFMAVGLTDLLESSGMNGVPAFVGLALLSAFLCMFIASGSAIWSILAPIFVPMFMLLGFHPAFAQILFRIADSSVLPLAPVSPFVPLFLGFLQRYRPDARLGTYYSLVLPYPLIFLAVWLLLLVGWYLVGLPIGPGIYPRLS | failed |
| MSMSSSSSICGDEDGDLLLDEEEEIDFYAILNVPKDATDDEIIKAYRKRCLMFHPDRFVDNDEKKDAERVFVKLRRAHEVLLDPKQRAIYDALGVQGLDTQGWEL | not failed |
| MSMVVDSVPDSSTFVGKTIRPVAAVSIHGIVFDGERLLAVDSKNGYLLEIDPYTNNTKLLNGQYWQEFIGATGLAIADRQLWFSSGQYVYTCNLEGPDLKPEVFAWFDDPVNGVAIWESTVYITCHKRGHIWVYGRDTRKLVATFYSPGIGVENITVRGEELWVCDSAEQSVYCLDRATGEINFSLITPFESPTGLAFYDDQAVGKATLYVAYVQQEPYVRDNPNADPNHELMYRETTFIHPLYFYNDPHQCCAFSNGYLVEMRYVEELAPLDPVDLKQVEWRMALPAVTPRQRIRKIESVGLPFSRIDDVNGQKVAVFEFDQLDLDSRAVFGWRVEMEVWGIKYRLKPSDCEHLPALPEGFADRYLVDNDNLSMETDIIIRAAAEAIGRETNLLRQMFNIRNYVYDRLSYGIKPHIDTPDLALRRGVGSCGEYVGVLLALARLNGIACRTAGRYKCPPHPLQRNLPMEPDFNHVWFEFYLPGIGWLPMESNPDDTNDGGPYPTRFFMGLAWYHAETAKDVPFEQLLSQGIPVNKQVVSIGELAINHVQFTILEELDPAAHLAHLEHHHHHH | not failed |
| MSNAIEINELHWLLAVTQNIDVGIVVLDLNYRVTVWNTFMENRSGVVPYVAIDKTFFELFPEVNRQWLSKKIDNVVTLGTPAFTIWEQRPYLVRFKNYQPITGHEEFMYQNTTLFPLRSTTGAISHVCLVIYDVTDVAANRNQLQAANDKLQQLSGAEQK | not failed |
| MSNDNGVSRRQFMKTSALAAGGLLLACHLPLGRRDAAAATAEAFTPNAFLHIGTDERVTVIVNKSEMGQGVYTSLPMLVAEELCCDWKRVTFRPSPVAPEYNHTQFGPIMVTGGSTSVRSEWSRLSLAGAAAREMLIAAAAQEWRVEPAACRAEKGFVLGPGGRKLSFGTLAPKAASLPVPKEPKLKPGAKTLLGKPLKRLDSPAKIKGTAVFGIDVRAPGMLTALIARPPVFGGTVKGFDAAKAKAVPGVLDVVAVDAGVAVVADGFWPALKGREALAISWDEGDGARVSTDAMREEYARLAATPGAVARKDGDAPAELAKAARRFEAEYEVPYLAHATMEPLNCFVDLQSDSCLIRTGSQFQTGDRNAAARVAGLKPEQVTLETTFLGGGFGRRACPASDFVIEAVQVAKTVGKPVMVIRTREDDMRAGFYRPLWRDRVAACLDGRGYPLAWHHCIVGQSIMIGTPFEAMIRNGIDDTSVEGAADTPYAIPNLQVELHSPRNPVPVLWWRSVGHSHTAFVVESFLDELAHAAGKDPYQYRRALLAKHPRHLKVLETAARKAGWGKPLPKGRGRGIAVHESFGSFIAQVAEVSLSGDGRIRVHRVVCAVDCGRIVNPDTIEAQMESGITFGLSAALHGAITLRNGRVEQGNFDDYPLVRMAEMPTVEVHIVLSGEDPGGIGEPGVPPIAPAVANALFAASGIRVRSLPLTPETVKRAGGRAA | failed |
